Data published in paper PMC13382767.

Biological target: apo-CA-HNifU (N-terminal His-tagged NifU with cysteines 35, 62, 106, 272 and 275 mutated to alanine, core cluster removed) (A. vinelandii) (UniProt P05340)
UniProt P05340, sequence (P05340 other isoform, or with tags, fused parts or gaps, change not shown): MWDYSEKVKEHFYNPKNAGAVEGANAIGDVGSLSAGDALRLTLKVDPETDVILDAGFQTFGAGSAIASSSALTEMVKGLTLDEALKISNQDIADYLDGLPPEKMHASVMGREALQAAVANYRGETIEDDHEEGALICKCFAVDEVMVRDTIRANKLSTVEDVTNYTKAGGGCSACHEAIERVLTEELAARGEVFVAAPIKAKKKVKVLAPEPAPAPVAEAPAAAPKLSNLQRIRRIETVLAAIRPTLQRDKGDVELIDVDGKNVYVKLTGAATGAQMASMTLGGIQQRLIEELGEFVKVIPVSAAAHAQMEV

iron transferred from GrxDS to EDTA-treated CA-HNifU (iron in the flowthrough NifU after incubation and separation in a Strep-column): 1 iron
iron transferred from GrxDS to urea-treated apo-CA-HNifU (iron in the flowthrough NifU after incubation and separation in a Strep-column): 1.8 irons
Substance: C-terminal Strep-tagged A. vinelandii GrxD (GrxDS) (natural protein)
